{"source": "patent EP4663659A1", "about": "(Merck Patent GmbH, dated 2025)", "binders": {"B1": {"name": "anti-MUC-1 (D11-28) antibody, PE-labeled (antibody, human IgG1, lambda, L234A L235A, V domains shown)", "VH": "EVQLVQSGAEVKKPGASVKVSCKASGYSFTGHYMHWVRQAPGQGLEWMGWIDPVTGGTKYAQKFQGWVTMTRDTSISTAYMELSRLRSDDTAVYYCAREVTGDRGQFDKWGQGTLVTVSS", "VL": "SYVLTQPPSVSVAPGKTARITCGGNNIGSKSVHWYQQKPGQAPVLVIYYGSNRPSGIPERFSGSNSGNTATLTISRVEAGDEADYYCQVWDSSSDWVFGGGTKLTVLG", "modifications": "PE (phycoerythrin) label, site not stated", "notes": "also called anti-MUC-1 antibody clone (D11-28); anti-MUC-1 PE antibody"}}, "biological_target": "T1, human MUC-1 on cells (human, UniProt P15941 24-1255)", "T1 construct": "Endogenous on human tumour cell lines and normal kidney and lung cells; also called hMUC-1; mucin 1", "T1 sequence (P15941 24-1255 limits assumed)": "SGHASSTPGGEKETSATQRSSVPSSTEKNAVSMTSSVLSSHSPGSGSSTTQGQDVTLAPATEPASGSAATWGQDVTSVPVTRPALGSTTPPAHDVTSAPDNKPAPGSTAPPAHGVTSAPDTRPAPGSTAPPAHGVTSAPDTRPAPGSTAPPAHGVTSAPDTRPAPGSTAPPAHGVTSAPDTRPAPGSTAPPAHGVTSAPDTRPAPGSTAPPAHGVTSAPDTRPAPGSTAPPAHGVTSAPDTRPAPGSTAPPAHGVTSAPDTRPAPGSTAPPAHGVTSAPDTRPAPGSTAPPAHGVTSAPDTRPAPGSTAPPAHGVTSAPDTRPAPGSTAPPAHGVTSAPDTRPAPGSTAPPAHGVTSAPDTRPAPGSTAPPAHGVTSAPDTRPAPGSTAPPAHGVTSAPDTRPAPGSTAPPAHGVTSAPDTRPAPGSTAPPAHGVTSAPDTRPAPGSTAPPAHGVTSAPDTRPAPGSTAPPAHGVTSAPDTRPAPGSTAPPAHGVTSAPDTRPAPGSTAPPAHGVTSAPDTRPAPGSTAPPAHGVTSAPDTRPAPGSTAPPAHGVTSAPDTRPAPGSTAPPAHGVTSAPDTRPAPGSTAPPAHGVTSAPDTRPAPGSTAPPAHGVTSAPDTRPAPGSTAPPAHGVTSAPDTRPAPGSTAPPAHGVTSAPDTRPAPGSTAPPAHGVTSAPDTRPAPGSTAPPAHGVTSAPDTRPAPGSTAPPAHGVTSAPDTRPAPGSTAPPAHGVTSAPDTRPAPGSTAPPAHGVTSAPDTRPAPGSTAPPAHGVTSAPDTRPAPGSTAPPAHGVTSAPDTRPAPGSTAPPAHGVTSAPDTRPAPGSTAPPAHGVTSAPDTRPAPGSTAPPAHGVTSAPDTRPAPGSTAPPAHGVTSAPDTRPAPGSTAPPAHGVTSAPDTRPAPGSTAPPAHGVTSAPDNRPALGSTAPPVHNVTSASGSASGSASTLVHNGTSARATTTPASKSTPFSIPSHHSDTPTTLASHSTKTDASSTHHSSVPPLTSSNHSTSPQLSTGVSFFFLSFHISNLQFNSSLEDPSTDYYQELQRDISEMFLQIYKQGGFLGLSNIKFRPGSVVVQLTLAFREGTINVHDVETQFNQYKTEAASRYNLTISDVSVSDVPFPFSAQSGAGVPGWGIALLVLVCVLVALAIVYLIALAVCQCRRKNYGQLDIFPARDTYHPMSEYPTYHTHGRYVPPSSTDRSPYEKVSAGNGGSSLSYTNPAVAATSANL", "test": "flow cytometry with PE-labeled antibody on tumor cell lines, MESF by PE Quantum Beads", "data": [{"binder": "B1", "values": [{"measurement": "binding result", "value": "binds"}]}]}
